Assay results published in patent publication US20240400654A1.
Residue numbers refer to the chain shown, from its start. In names and notes the source's numbering stands. Several values for one entry are separate records, joined by “and”; a condition that tells them apart may be missing. Equal values may be shown once.

B1: KB001 mouse Fab variant VL L55R/S51G (Fab, V domains shown)
VH: EVQLKQSGPGLVAPSQSLSITCTVSGFSLSIYSVHWVRQPPGKGLEWLGMIWGGGSSDYNSALKSRLSISKDNSKSQVFLKMNSLQTDDTAMYYCARNGNFYAMDYWGQGTSVTVSS
VL: QIVLTQSPAIMSASLGERVTMTCTASSSVSSSFLHWYQQKPGSSPQLWIYGTSNRASGVPARFSGSGSGTSYSLTISSMEAEDAATYYCHQYHHSPYIYTFGGGTKLEIK
B2: KB001 mouse Fab VH L63H (Fab, V domains shown)
VH: B1 VH with L63H
VL: B1 VL with G51S, R55L
B3: KB001 mouse Fab VH A62F (Fab, V domains shown)
VH: B1 VH with A62F
VL: B1 VL with G51S, R55L
B4: KB001 mouse Fab VH K64G (Fab, V domains shown)
VH: B1 VH with K64G
VL: B1 VL with G51S, R55L
B5: KB001 mouse Fab VH K64I (Fab, V domains shown)
VH: B1 VH with K64I
VL: B1 VL with G51S, R55L
B6: KB001 mouse Fab VH K64S (Fab, V domains shown)
VH: B1 VH with K64S
VL: B1 VL with G51S, R55L
B7: KB001 mouse Fab VH K64Y (Fab, V domains shown)
VH: B1 VH with K64Y
VL: B1 VL with G51S, R55L
B8: KB001 mouse Fab VH K64V (Fab, V domains shown)
VH: B1 VH with K64V
VL: B1 VL with G51S, R55L
B9: KB001 mouse Fab VH S61H (Fab, V domains shown)
VH: B1 VH with S61H
VL: B1 VL with G51S, R55L
B10: KB001 mouse Fab VH S61R (Fab, V domains shown)
VH: B1 VH with S61R
VL: B1 VL with G51S, R55L
B11: KB001 mouse Fab VH A62M (Fab, V domains shown)
VH: B1 VH with A62M
VL: B1 VL with G51S, R55L
B12: KB001 mouse Fab VH K64H (Fab, V domains shown)
VH: B1 VH with K64H
VL: B1 VL with G51S, R55L
B13: KB001 mouse Fab VH L63Y (Fab, V domains shown)
VH: B1 VH with L63Y
VL: B1 VL with G51S, R55L
B14: KB001 mouse Fab VH A62G (Fab, V domains shown)
VH: B1 VH with A62G
VL: B1 VL with G51S, R55L
B15: KB001 mouse Fab VH S61G (Fab, V domains shown)
VH: B1 VH with S61G
VL: B1 VL with G51S, R55L
B16: KB001 mouse Fab variant VL A56Q (Fab, V domains shown)
VH: B1 VH
VL: B1 VL with G51S, R55L, A56Q
B17: KB001 mouse Fab VH A62V (Fab, V domains shown)
VH: B1 VH with A62V
VL: B1 VL with G51S, R55L
B18: KB001 mouse Fab VH A62E (Fab, V domains shown)
VH: B1 VH with A62E
VL: B1 VL with G51S, R55L
B19: KB001 mouse Fab VL T100D (Fab, V domains shown)
VH: B1 VH
VL: B1 VL with G51S, R55L, T100D
B20: KB001 mouse Fab VH S61F (Fab, V domains shown)
VH: B1 VH with S61F
VL: B1 VL with G51S, R55L
B21: KB001 mouse Fab VH S61K (Fab, V domains shown)
VH: B1 VH with S61K
VL: B1 VL with G51S, R55L
B22: KB001 mouse Fab VH A62H (Fab, V domains shown)
VH: B1 VH with A62H
VL: B1 VL with G51S, R55L
B23: KB001 mouse Fab variant VL L55Q (Fab, V domains shown)
VH: B1 VH
VL: B1 VL with G51S, R55Q
B24: KB001 mouse Fab VH S61L (Fab, V domains shown)
VH: B1 VH with S61L
VL: B1 VL with G51S, R55L
B25: KB001 mouse Fab VH L63M (Fab, V domains shown)
VH: B1 VH with L63M
VL: B1 VL with G51S, R55L
B26: KB001 mouse Fab VH L63F (Fab, V domains shown)
VH: B1 VH with L63F
VL: B1 VL with G51S, R55L
B27: KB001 mouse Fab VH A62R (Fab, V domains shown)
VH: B1 VH with A62R
VL: B1 VL with G51S, R55L
B28: KB001 mouse Fab VH A62I (Fab, V domains shown)
VH: B1 VH with A62I
VL: B1 VL with G51S, R55L
B29: KB001 mouse Fab VL T100K (Fab, V domains shown)
VH: B1 VH
VL: B1 VL with G51S, R55L, T100K
B30: KB001 mouse Fab VH A62L (Fab, V domains shown)
VH: B1 VH with A62L
VL: B1 VL with G51S, R55L
B31: KB001 mouse Fab VH K64M (Fab, V domains shown)
VH: B1 VH with K64M
VL: B1 VL with G51S, R55L
B32: KB001 mouse Fab VH A62N (Fab, V domains shown)
VH: B1 VH with A62N
VL: B1 VL with G51S, R55L
B33: KB001 mouse Fab VH A62D (Fab, V domains shown)
VH: B1 VH with A62D
VL: B1 VL with G51S, R55L
B34: KB001 mouse Fab VH A62Q (Fab, V domains shown)
VH: B1 VH with A62Q
VL: B1 VL with G51S, R55L
B35: KB001 mouse Fab variant VL A56T (Fab, V domains shown)
VH: B1 VH
VL: B1 VL with G51S, R55L, A56T
B36: KB001 mouse Fab VH S61M (Fab, V domains shown)
VH: B1 VH with S61M
VL: B1 VL with G51S, R55L
B37: KB001 mouse Fab VH S61C (Fab, V domains shown)
VH: B1 VH with S61C
VL: B1 VL with G51S, R55L
B38: KB001 mouse Fab VH L63V (Fab, V domains shown)
VH: B1 VH with L63V
VL: B1 VL with G51S, R55L
B39: KB001 mouse Fab variant VL L55H (Fab, V domains shown)
VH: B1 VH
VL: B1 VL with G51S, R55H
B40: KB001 mouse Fab variant VL A56N (Fab, V domains shown)
VH: B1 VH
VL: B1 VL with G51S, R55L, A56N
B41: KB001 mouse Fab variant VL L55S (Fab, V domains shown)
VH: B1 VH
VL: B1 VL with G51S, R55S

Experiments:
[1] = biological target: HRgpA-6H (Porphyromonas gingivalis) (UniProt P28784); experiment: ELISA, FASEBA Fab supernatant on coated HRgpA-6H
UniProt P28784, sequence (P28784 228-860 limits assumed): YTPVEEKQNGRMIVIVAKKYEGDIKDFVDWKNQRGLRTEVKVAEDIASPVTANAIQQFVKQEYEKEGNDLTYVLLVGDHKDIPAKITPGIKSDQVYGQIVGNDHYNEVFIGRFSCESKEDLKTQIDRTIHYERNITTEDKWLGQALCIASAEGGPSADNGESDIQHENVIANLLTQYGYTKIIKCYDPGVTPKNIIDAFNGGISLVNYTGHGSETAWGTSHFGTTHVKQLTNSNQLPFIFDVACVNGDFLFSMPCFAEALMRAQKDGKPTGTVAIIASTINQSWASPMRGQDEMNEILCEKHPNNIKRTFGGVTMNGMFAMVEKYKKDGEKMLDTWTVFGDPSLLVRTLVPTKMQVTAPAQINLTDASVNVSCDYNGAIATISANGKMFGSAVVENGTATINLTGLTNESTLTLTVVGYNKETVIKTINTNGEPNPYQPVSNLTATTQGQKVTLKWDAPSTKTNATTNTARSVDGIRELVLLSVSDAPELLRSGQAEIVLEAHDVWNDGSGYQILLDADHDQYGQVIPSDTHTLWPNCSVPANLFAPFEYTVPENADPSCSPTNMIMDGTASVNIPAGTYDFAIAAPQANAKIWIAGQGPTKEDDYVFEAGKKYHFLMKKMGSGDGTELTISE

[2] = biological target: HRgpA-6H (Porphyromonas gingivalis) (UniProt P28784); experiment: ELISA on coated HRgpA-6H, OD relative to parental Fab
[3] = biological target: HRgpA-6H (Porphyromonas gingivalis) (UniProt P28784); experiment: ELISA, coated HRgpA-6H

Binder | OD450 nm [1] | Ratio OD(Variant)/OD(WT) [2] | OD450 nm [3] | Ratio OD(Variant)/OD(WT) [3]
B1 | 0.748 | 0.955 fold |  | 
B2 |  |  | 0.818 and 0.843 and 0.822 | 0.936 and 0.965 and 0.941
B3 |  |  | 0.843 and 0.733 | 0.965 and 0.839
B4 |  |  | 0.806 | 0.975
B5 |  |  | 0.743 and 0.756 and 0.715 | 0.898 and 0.914 and 0.865
B6 |  |  | 0.808 | 0.977
B7 |  |  | 0.763 | 0.923
B8 |  |  | 0.715 and 0.714 | 0.865 and 0.863
B9 |  |  | 0.469 | 0.95
B10 |  |  | 0.438 | 0.888
B11 |  |  | 0.77 and 0.735 | 0.881 and 0.841
B12 |  |  | 0.752 | 0.909
B13 |  |  | 0.836 and 0.846 and 0.801 | 0.957 and 0.968 and 0.916
B14 |  |  | 0.813 and 0.785 | 0.93 and 0.898
B15 |  |  | 0.46 and 0.476 | 0.932 and 0.965
B16 | 0.705 | 0.865 fold |  | 
B17 |  |  | 0.742 and 0.757 | 0.849 and 0.866
B18 |  |  | 0.854 | 0.977
B19 |  |  | 0.645 | 1.23
B20 |  |  | 0.432 and 0.473 | 0.875 and 0.958
B21 |  |  | 0.49 | 0.993

Binder | OD450 nm [1] | Ratio OD(Variant)/OD(WT) [2] | OD450 nm [3] | Ratio OD(Variant)/OD(WT) [3]
B22 |  |  | 0.819 and 0.834 and 0.844 | 0.937 and 0.954 and 0.966
B23 | 0.662 | 0.845 fold |  | 
B24 |  |  | 0.448 | 0.908
B25 |  |  | 0.8 | 0.915
B26 |  |  | 0.743 | 0.85
B27 |  |  | 0.733 and 0.847 and 0.809 | 0.839 and 0.969 and 0.926
B28 |  |  | 0.702 and 0.808 | 0.803 and 0.924
B29 |  |  | 0.625 | 1.19
B30 |  |  | 0.812 | 0.929
B31 |  |  | 0.799 and 0.757 and 0.78 | 0.966 and 0.915 and 0.943
B32 |  |  | 0.721 and 0.799 | 0.825 and 0.914
B33 |  |  | 0.853 and 0.851 | 0.976 and 0.974
B34 |  |  | 0.737 and 0.869 | 0.843 and 0.994
B35 | 0.731 | 0.896 fold |  | 
B36 |  |  | 0.493 and 0.479 | 0.999 and 0.971
B37 |  |  | 0.431 | 0.873
B38 |  |  | 0.784 and 0.77 and 0.778 | 0.897 and 0.881 and 0.89
B39 | 0.64 | 0.817 fold |  | 
B40 | 0.712 and 0.775 | 0.873 fold and 0.95 fold |  | 
B41 | 0.655 | 0.836 fold |  | 
